Data from paper PMC5871715.
Read-outs that look alike come from different tables or passages of the source.

Experiments:
[1] = biological target: Netrin-1 (Homo sapiens) (UniProt O95631); settings: cited from earlier work
[2] = biological target: Netrin-1 (Homo sapiens) (UniProt O95631); settings: cited from earlier work; remark: listed apart in the source
[3] = biological target: full-length wild-type rat DCC on the cell surface (UniProt Q63155); assay: cell-binding assay; settings: n = 100 for each group; parent: est. 49; read off a plot
Sequence of full-length wild-type rat DCC on the cell surface (Q63155 26-1445): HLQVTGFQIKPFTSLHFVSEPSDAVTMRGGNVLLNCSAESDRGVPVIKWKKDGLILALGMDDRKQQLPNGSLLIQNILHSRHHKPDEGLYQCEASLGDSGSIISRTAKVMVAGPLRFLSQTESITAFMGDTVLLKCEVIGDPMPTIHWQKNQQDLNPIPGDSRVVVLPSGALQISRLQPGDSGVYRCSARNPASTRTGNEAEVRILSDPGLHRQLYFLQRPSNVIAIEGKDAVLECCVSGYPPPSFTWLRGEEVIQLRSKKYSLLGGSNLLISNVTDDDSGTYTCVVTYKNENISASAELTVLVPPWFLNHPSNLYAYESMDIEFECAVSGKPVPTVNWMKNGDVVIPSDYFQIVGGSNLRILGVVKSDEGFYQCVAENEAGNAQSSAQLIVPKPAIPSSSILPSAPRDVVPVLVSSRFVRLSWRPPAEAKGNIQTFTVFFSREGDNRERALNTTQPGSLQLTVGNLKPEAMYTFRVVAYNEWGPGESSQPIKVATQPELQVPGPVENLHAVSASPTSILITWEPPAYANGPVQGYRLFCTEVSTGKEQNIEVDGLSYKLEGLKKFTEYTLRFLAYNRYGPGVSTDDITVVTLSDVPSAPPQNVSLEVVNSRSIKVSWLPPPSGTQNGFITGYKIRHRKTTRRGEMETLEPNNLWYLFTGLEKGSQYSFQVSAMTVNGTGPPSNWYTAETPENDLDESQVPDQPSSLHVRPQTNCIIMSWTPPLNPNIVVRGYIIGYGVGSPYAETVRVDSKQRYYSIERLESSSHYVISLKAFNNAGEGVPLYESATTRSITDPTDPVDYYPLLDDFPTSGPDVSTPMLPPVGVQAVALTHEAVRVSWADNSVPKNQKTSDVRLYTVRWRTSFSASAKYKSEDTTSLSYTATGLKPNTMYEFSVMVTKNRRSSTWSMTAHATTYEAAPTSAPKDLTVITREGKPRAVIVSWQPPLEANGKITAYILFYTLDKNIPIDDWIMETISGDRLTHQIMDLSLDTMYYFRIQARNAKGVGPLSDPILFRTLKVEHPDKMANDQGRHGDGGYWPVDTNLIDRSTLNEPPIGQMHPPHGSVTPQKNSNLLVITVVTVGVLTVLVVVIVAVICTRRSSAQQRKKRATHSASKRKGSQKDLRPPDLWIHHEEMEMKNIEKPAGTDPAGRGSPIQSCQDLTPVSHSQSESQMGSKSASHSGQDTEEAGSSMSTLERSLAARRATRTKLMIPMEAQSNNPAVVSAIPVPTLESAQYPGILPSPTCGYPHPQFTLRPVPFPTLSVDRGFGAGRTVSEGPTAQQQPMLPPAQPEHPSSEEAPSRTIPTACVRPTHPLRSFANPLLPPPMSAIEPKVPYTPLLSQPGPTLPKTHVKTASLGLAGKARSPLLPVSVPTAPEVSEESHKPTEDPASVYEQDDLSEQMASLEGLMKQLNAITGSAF

Sequence of DCC Fn5 (P43146 846-942): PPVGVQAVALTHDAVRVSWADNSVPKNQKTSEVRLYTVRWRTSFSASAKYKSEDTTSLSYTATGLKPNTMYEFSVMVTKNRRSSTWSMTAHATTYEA

Substance | response (% positive binding) [3] | also measured
DCC Fn5 (from UniProt P43146) | – | Kd [1]: 5000 nM
Draxin (from UniProt Q8NBI3) | – | Kd [2]: 10 nM
wild-type rDraxin-Flag R322A | 3 | –

The next lines start with results.

response (% positive binding) [3] | Substance | also measured
59 | wild-type rDraxin-Flag R282A | –
6 | wild-type rDraxin-Flag R282D | –
10 | wild-type rDraxin-Flag R322D | –
